Assay results: patent US20140289906A1, “Compositions Having Dicamba Decarboxylase Activity and Methods of Use” (priority 2013, published 2014)

Experiment: 14C assay: 14CO2 capture from [14C]-carboxyl-labeled dicamba with IPTG-induced recombinant E. coli cells
Conditions: for Dicamba Decarboxylase Activity: IPTG-induced recombinant E. coli cells, 14CO2 from [14C]-carboxyl-labeled dicamba; for Enzymatic Detection level: dicamba decarboxylation activity

| Molecule | Dicamba Decarboxylase Activity | Enzymatic Detection level |
| --- | --- | --- |
| 101 (protein, listed as Aquifex aeolicus) MAQKIALCITGASGVIYGIKLLQVLEELDFSVDLVISRNAKVVLKEEHSLTFEEVLKGLKNVRIHEENDFTSPLASGSRLVHYRGVYVVPCSTNTLSCIANGINKNLIHRVGEVALKERVPLVLLVREAPYNEIHLENMLKITRMGGVVVPASPAFYHKPQSIDDMINFVVGKLLDVLRIEHNLYKRWRG | No | No |
| 103 (protein, Plasmodium yoelii yoelii) MAMEIPTEEIKFLKKEDVQNIDLNGMSKKERYEIWRRIPKVELHCHLDLTFSAEFFLKWARKYNLQPNMSDDEILDHYLFTKEGKSLAEFIRKAISVSDLYRDYDFIEDLAKWAVIEKYKEGVVLMEFRYSPTFVSSSYGLDVELIHKAFIKGIKNATELLNNKIHVALICISDTGHAAASIKHSGDFAIKHKHDFVGFDHGGREIDLKDHKDVYHSVRDHGLHLTVHAGEDATLPNLNTLYTAINILNVERIGHGIRVSESDELIELVKKKDILLEVCPISNLLLNNVKSMDTHPIRKLYDAGVKVSVNSDDPGMFLSNINDNYEKLYIHLNFTLEEFMIMNNWAFEKSFVSDDVKSELKALYF | No | No |
| 7 (protein, listed as Legionella pneumophila) MAIVDFETHFITEACIDYLTQRQEVPKLVPELNGAYTMCFTPDVSLFHTSALMEELLSLNEQRLAIMDQAGVTIQVLSLTTINGIDSCPGDENKSTALAREVNDQLYSAIQRHPERFKGFASISPYDVKEGVKELERAISQLGFVGWLTHSNFGEDNYLDDKTYWPLLEAAEGLNIPIYLHPNVPIMREFGKYGFALGGSALGFEFDTALCLMRMILGGVFDAFPKLKIMLGHLGETMPFLMERLDHLYRIPDLKAYRPSIQRIPSEVLRQNVYITTSGRFFVPALRYVLEVMGEDRVLFASDYPMESLLDATRFIQDSDLSNQTKQKIFSINAKNLNLI | No | No |
| 104 (protein, Plasmodium Vivax) MANILQEPIDFLKKEELKNIDLSQMSKKERYKIWKRIPKCELHCHLDLCFSADFFVSCIRKYNLQPNLSDEEVLDYYLFAKGGKSLGEFVEKAIKVADIFHDYEVIEDLAKHAVFNKYKEGVVLMEFRYSPTFVAFKYNLDIELIHQAIVKGIKEVVELLDHKIHVALMCIGDTGHEAANIKASADFCLKHKADFVGFDHGGHEVDLKEYKEIFDYVRESGVPLSVHAGEDVTLPNLNTLYSAIQVLKVERIGHGIRVAESQELIDMVKEKNILLEVCPISNVLLKNAKSMDTHPIRQLYDAGVKVSVNSDDPGMFLTNINDDYEELYTHLNFTLEDFMKMNEWALEKSFMDSNIKDKIKNLYF | No | No |
| 97 (protein, listed as Sphingobium sp.) MAMMIIDCHGHYTVLPKAHDEWREQQKAAFKAGQPAPPYPEISDDEIRETIEANQLRLIKERGADMTIFSPRASAMAPHVGDQSVAVPWAQACNNLIARVVDLFPETFAGVCMLPQSPEADMTSSIAELERCVNELGFIGCNLNPDPGGGHFKHPPLTDRFWYPFYEKMVELDVPAMIHVSGSCNPAMHATGAYYLAADTIAFMQLLQGNLFADFPTLRFIIPHGGGAVPYHWGRFRGLADMLKQPSLDTLLMNNVFFDTCVYHQPGINLLADVIDNKNILFGSEMVGAVRGIDPTTGHYFDDTKRYIDALDISDQERHAIFEGNTRRVFPRLDAKLKARGL | No | No |
| 98 (protein, Xanthomonas campestris pv.) MAIIDCHGHYTTAPAAHDAFRKAQIAHHDDPQQPAPQYPHISDDALRESIEQHQLRLLRERGADMTIFSPRASTMAHHIGNEAVSQVWTQRCNDLIARVVQLYPHTFIGVCQLPQSPGVPISHSIAELERCVNELGFVGCNLNPDPSGGHWNGVPLTDRAWYPFFEKMVELDVPAMVHVSGSCNANFHATGAHYLNADTTAFMQFLEGDLFRDFPSLRFIIPHGGGAVPYHWGRFRGLADMLGKPPLATHVMRNVFFDTCVYHQPGIDLLFEVIDIDNILFGSEMVGAVRGIDPQTGHYFDDTKRYIDALTISDADKRKVFEGNARRVYPRLDAQLRARGL | No | No |
| 86 (protein, listed as Sphingopyxis alaskensis) MALGASVASREASAQMAKAPMRKIATEEAFATPELAKAWLEIARSEPNSSLDIPTGILSIFDNPRPGSNQDRFRRQLLDVDAERIRDMDEAGVDMQLLSVTIPGVQIFEPARAGELAVTTNDHLAAAIARRPTRFAGLACFAPHDPVQATREMERAVNALGLKGFIVNSHTQDLYLDDPRFAPVLEAAQSLDCPIYLHPRAPSNGMAAPFRDYSMGGSIWGFGVEAGTHAVRMILSGVFDRYPRLRIVLGHMGEALPFWMWRLDHMAARRAKDGRMKPLSLAPSEYFKRNFAVTTSGFESPDVLDLVIKVAGIENIMWAIDYPYESSRDAVTFIEGADLTASQRASIFHRNAVRHFRLS | Low | Low |
| 93 (protein, listed as Mucilaginibacter paludis) MAKYGKHITINKNMRIVTLEEHISFPEMADQIPKAALGSFGRSEAMQRIAPKLADITGERLKSMDANGISMQVLSVDSSGVNLLSPQQGPAFATQYNDLIANRIAGFEKRFTAFAHLPMTAPFAAADELERAVKEHHFCGAMIRGLTGDQFLDHPQFAPIFERAQKLDVPIYLHPGLPPKGVADIYYSGLPNYSGMAEALACYGWGWHSETALHVLRLLFSGIFDQYPKLKLVIGHMGEMLPMMMARSEKAFKPGNGGANVRTLTDTFRSQVYLTTSGFFTQPPLKIALDTFGIDHVMFSVDYPFSTNEMGIEFLNEIDLPDEEVARIAHGNADKLLNLKA | Low | Low |
| 96 (protein, Aspergillus nidulans) MAPLIVDVHTHVYPPAYMQMLRSRKTVPYVHDPSNNRDPRLIILSSDDDASIPLDQRGRPVDSSYWDINVKLSFMRQHGINCSVISLANPWLDFVEPAEAQMWAERINDDLEKTCATVNKAADPGNTLTLDQKETLFAFGALPLSAPSSESVVAEIKRLKTLEHLRGVIMGTSGLGKGLDDARLDPVWEALQETDMLMFLHPHYGLPEEAYGGPETTGRYGHVLPLALGFPLETTIAVTRMLLSGVFDRFPRLKILLAHSGGTLPFLAGRIESCILHERKFISGGGDVQGPQRSVWDVLKTNIYLDAVVYGKPGLEAAMTASGSDRLLFGTDHPFFPPLDSKDNSWPSVTTNYQAIHATFDTNSKTVADVLGGNAARILNLK | No | No |
| 90 (protein, Pyrenophora tritici-repentis) MAATIDRVLYLGNATQRRYTSATVSVPRIFGKVALEEHVGTSIWAKYNLTPPANAVVGVLNRPPTLPNTLDTIARLDDINGRLSSMNHSGIGYVIVSLSSPGIQGVHDTALAIKFSTDINDELYLKYANAYPDKFAFFATVPMQDPVAAASELERAVSLLGAKGAAINGYTDIGPPGNSTTRYLDDPINAPFWSKVAALNVPIYLHPRAPPPSQQLVYNYPNNSLSAYPGLVTGGFAYGAETAVHALRLMLSGLFDTHPNIQIILGHAAEGLPFLIHRSDTQLAAEVPGTNGPYKRPLRYYLRNNFYATLSGVRRLSTTQCTLAEMGEERVLFSVDYPFQSNEDAADWFDGVEGMSVETKRKVARGNARRLFNLTVDLDERQIDGDFM | Low | Low |
| 99 (protein, listed as Ralstonia solanacearum) MAIIDCHGHFTTAPTALEDWRKRQIANLATPALGPSPDDLKISDDALTEAIRANQLRLMQARGSDLTIFSPRASFMAHHIGDFHTSATWAAICNALCHRVSQLFPDHFVGAAMLPQSPGVDIRTCIPELARCIVDYGFVGVNLNPDPSGGHWTSPPLSDPYWFPLYEKLVEYDVPAMIHVSTSCNACFHTTGAHYLNADTTAFMQVLTSDLFRRFPTLKFVIPHGGGAVPYHWGRFRGLAQELKTPPLQEHLLHNVFFDTCVYHQPGIDLLTRVIPVDNILFASEMIGAVRGIDPETGHPFDDTRRYIDQAHTLSAEDRHKIYEGNARRVYPRLDARLKARGR | No | No |
| 102 (protein, listed as Lactobacillus plantarum) MATKTFKTLDDFLGTHFIYTYDNGWEYEWYAKNDHTVDYRIHGGMVAGRWVTDQKADIVMLTEGIYKISWTEPTGTDVALDFMPNEKKLHGTIFFPKWVEEHPEITVTYQNEHIDLMEQSREKYATYPKLVVPEFANITYMGDAGQNNEDVISEAPYKEMPNDIRNGKYFDQNYHRLNK | No | No |
| 91 (protein, listed as Botryotinia fuckeliana) MASFVCNFGKAALATLLLTPSISAADYTPQETVLNSGRPTFYDASTSIPGKIALEEHVGNDLLNGLYTVPYYPNTNEPQYSDSVYIADVGEKMLDIPSRIANMDAANISISVLTFGGPGIQGVFNATYATYAAGYVNDYLYKNYKNNANYTGRFEFWCSNALQEPSKAATELERCVKELGGVGSFVGGYTNNGGINGTANDIVYLDDPSMEPFLEKVVELDVPIYLHPRMPAPSQLLSVKGYEFLGSSPWGFSSETGAHALRLMVSGTLDKYPTLKIVLGHCGEGLPFFLPRIDQRLRHFKKELFNNTLTMEEYWLRNFYVTTAGVQDAGTLVDTIKRTGEDRVMFSVDYPFEDTVEIAGWFDRLEMNTLTKTKLAYENAKALLKLTCYVDAEKRPRIFNKHHVDDIIKHTHSPCIWTLFH | Low | Low |
| 8 (protein, listed as Metarhizium anisopliae) MARGKINFEEAFELPTLADSSREQAALYIAPKDLDRYIYHIKHPLGERLQLANSHGIGYTIYSLTVPGIQGIPDQSKAEQHATTVNDWIANEIKDHRDRLGAFAALSMHDAAQAAAELERCVRQHGFHGALLNNYQHAGPDGETYLFYDQPAYDVFWQKCVELDVPVYLHPAAPAGNYYKQMYAQRKYLVGPPLSFANDVSLHLLGLVTNGVFDRFPKLKVVVGHLGEHIPFDFWRISHWLEDVERPLAAGRGDVMSKKDLLYYFKNNIWVTTSGHFSTPTVRYVADYLGPERIMFSVDTPYETIENGVGWFDGEEDALTRALGGEDGYKKVARENAKKLFKLTKYHDCDA | Low | Low |
| 94 (protein, listed as Bacillus thuringiensis) MANRGDSNMKSLVGVIMGSTSDWETMKYACDILDELNIPYEKKVVSAHRTPDYMFEYAETARERGLKVIIAGAGGAAHLPGMVAAKTNLPVIGVPVQSKALNGLDSLLSIVQMPGGVPVATVAIGKAGSTNAGLLAAQILGSFHDDIHDALELRREAIEKDVREGSELV | No | No |
